Tests used:
[1] = molecular target: T1, IFN-α F (human, UniProt P01568 24-189); experiment: cell-based or functional assay
[2] = molecular target: T2, IFN-α WA (human, UniProt P05015 24-189); experiment: cell-based or functional assay
[3] = molecular target: T3, IFN-α I (human, UniProt P01571 24-189); experiment: cell-based or functional assay
[4] = molecular target: T4, IFN-α J1 (human, UniProt P01567 24-189); experiment: cell-based or functional assay
[5] = molecular target: T5, IFN-α D (human, UniProt P0DY56 24-189); experiment: cell-based or functional assay
T5 sequence (P0DY56 entry or part of it limits assumed): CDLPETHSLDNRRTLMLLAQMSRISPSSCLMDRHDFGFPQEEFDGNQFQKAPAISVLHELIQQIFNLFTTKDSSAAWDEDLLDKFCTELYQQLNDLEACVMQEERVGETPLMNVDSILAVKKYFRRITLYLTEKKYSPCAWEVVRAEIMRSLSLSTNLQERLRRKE

[6] = molecular target: T6, IFN-α K (human, UniProt P05013 24-189); experiment: cell-based or functional assay
T6 sequence (P05013 24-189): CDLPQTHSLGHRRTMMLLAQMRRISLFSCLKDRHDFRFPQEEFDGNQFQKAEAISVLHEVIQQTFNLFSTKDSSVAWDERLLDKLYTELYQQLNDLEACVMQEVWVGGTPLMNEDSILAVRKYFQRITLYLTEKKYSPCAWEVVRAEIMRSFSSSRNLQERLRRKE

[7] = molecular target: T7, IFN-α4a (human, UniProt P05014 24-189, limits assumed); experiment: cell-based or functional assay
T7 sequence (P05014 24-189 limits assumed): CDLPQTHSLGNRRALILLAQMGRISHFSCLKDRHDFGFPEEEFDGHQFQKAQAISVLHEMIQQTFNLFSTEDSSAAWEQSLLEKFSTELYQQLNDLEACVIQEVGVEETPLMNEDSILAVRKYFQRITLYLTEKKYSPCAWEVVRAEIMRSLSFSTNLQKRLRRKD

[8] = molecular target: T8, IFN-α C (human, UniProt P01566 24-189); experiment: cell-based or functional assay
T8 sequence (P01566 24-189): as the sequence (P05014 24-189 limits assumed) above, with A19G, H26P, G37R, F38I, E40Q, H46N, T132I, K134R counted along it

[9] = molecular target: T9, IFN-α G (human, UniProt P01569 24-189); experiment: cell-based or functional assay
T9 sequence (P01569 24-189): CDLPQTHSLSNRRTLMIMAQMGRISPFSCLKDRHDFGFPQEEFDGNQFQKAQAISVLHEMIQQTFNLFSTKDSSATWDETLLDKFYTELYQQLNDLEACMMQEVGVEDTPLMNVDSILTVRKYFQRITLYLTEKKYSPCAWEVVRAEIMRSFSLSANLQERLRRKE

[10] = molecular target: T10, IFN-α H2 (human, UniProt P01570 24-189); experiment: cell-based or functional assay
T10 sequence (P01570 24-189): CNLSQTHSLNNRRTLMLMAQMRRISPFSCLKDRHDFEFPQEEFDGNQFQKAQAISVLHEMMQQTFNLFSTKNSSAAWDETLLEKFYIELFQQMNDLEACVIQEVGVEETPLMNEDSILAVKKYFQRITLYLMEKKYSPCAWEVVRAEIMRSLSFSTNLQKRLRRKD

[11] = molecular target: T1, IFN-α F; experiment: cell-based or functional assay; remark: listed apart in the source
[12] = molecular target: T2, IFN-α WA; experiment: cell-based or functional assay; remark: listed apart in the source
[13] = molecular target: T3, IFN-α I; experiment: cell-based or functional assay; remark: listed apart in the source
[14] = molecular target: T4, IFN-α J1; experiment: cell-based or functional assay; remark: listed apart in the source
[15] = molecular target: T5, IFN-α D; experiment: cell-based or functional assay; remark: listed apart in the source
[16] = molecular target: T6, IFN-α K; experiment: cell-based or functional assay; remark: listed apart in the source
[17] = molecular target: T7, IFN-α4a; experiment: cell-based or functional assay; remark: listed apart in the source
[18] = molecular target: T8, IFN-α C; experiment: cell-based or functional assay; remark: listed apart in the source
[19] = molecular target: IFN-β (human, UniProt P01574 22-187); experiment: cell-based or functional assay
Sequence of IFN-β (P01574 22-187 limits assumed): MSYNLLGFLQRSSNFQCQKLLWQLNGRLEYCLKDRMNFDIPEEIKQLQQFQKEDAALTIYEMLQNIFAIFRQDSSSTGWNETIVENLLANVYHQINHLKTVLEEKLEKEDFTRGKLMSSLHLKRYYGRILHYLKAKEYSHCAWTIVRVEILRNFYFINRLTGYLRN

[20] = molecular target: T9, IFN-α G; experiment: cell-based or functional assay; remark: listed apart in the source
[21] = molecular target: T10, IFN-α H2; experiment: cell-based or functional assay; remark: listed apart in the source
[22] = molecular target: leukocyte IFN (Sigma); experiment: cell-based or functional assay
[23] = molecular target: T5, IFN-α D; experiment: ELISA, IFN subtype coated
Procedure: Solid-phase binding of all 15 IFNα subtypes was evaluated for screening of MAb specificity by ELISA assay. Briefly, 50 μl/well of 1 μg/ml of a recombinant IFNα protein subtype were coated overnight at 4° C. on ELISA plates (NUNC MaxiSorp™) plates. Coated plates were blocked with PBS+1% BSA and incubated with 50 μl of 25 ng ACO candidate MAb in PBS for 1 hour at 37° C. The assays were developed by incubation with 50 μl/well of an HRP conjugated goat anti-mouse-IgG (Jackson ImmunoResearch) at room temperature for 30 minutes followed by incubation with 100 μl/well of TMB substrate solution (Zymed) for 15 minutes. The reaction was stopped with 100 μl/well of 1 N HCl and read at OD₄₅₀ on an ELISA plate reader.

[24] = molecular target: T1, IFN-α F; experiment: cell-based or functional assay; remark: listed apart in the source
[25] = molecular target: T2, IFN-α WA; experiment: cell-based or functional assay; remark: listed apart in the source
[26] = molecular target: T3, IFN-α I; experiment: cell-based or functional assay; remark: listed apart in the source
[27] = molecular target: T4, IFN-α J1; experiment: cell-based or functional assay; remark: listed apart in the source
[28] = molecular target: T6, IFN-α K; experiment: cell-based or functional assay; remark: listed apart in the source
[29] = molecular target: T7, IFN-α4a; experiment: cell-based or functional assay; remark: listed apart in the source
[30] = molecular target: T8, IFN-α C; experiment: cell-based or functional assay; remark: listed apart in the source
[31] = molecular target: T9, IFN-α G; experiment: cell-based or functional assay; remark: listed apart in the source
[32] = molecular target: T10, IFN-α H2; experiment: cell-based or functional assay; remark: listed apart in the source

T3 sequence (P01571 24-189): as the sequence (P05014 24-189 limits assumed) above, with H26P, F38L, E40Q, H46N, A51T, D95N, V106M, R161I counted along it
T2 sequence (P05015 24-189): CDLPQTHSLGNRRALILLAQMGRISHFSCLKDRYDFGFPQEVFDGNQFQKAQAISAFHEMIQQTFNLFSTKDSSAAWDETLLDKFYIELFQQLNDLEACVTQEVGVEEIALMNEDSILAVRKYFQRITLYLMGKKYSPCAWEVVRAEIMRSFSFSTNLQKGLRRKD
T4 sequence (P01567 24-189 limits assumed): as the sequence (P05014 24-189 limits assumed) above, with G10R, H26P, D35E, G37R, A51T, S116F, T132M, L152F, Q159K, R161G counted along it
T1 sequence (P01568 24-189): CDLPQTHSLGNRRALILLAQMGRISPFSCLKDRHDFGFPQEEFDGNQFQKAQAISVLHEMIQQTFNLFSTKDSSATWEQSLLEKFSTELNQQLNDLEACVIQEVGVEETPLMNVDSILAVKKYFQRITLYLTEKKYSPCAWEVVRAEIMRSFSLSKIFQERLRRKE

B1: ACO-1 (antibody, V domains shown)
VH: QVQLQQPGAELVKPGASVKLSCKASGYTFTNYWMHWVKQRPGQGLEWIGEINPSHGRTIYNENFKSKATLTVDKSSITAFMQLSSLTSEDSAVYFCARGGLGPAWFAYWGQGTLVTVSA
VL: QIVLTQSPAIMSASPGEKVTLTCSAGSSVDSSYLYWYQQKPGSSPKLWIYSTSNLASGVPARFSGSGSGTSYSLTISSMEAEDAASYFCHQWSSYPFTFGSGTKLEIKR
notes: also called ACO-1 monoclonal antibody; hybridoma ATCC PTA-6557
percentage neutralization, CPE assay [1]: 96.6%
percentage neutralization, CPE assay [2]: 88.7%
percentage neutralization, CPE assay [3]: 98%
percentage neutralization, CPE assay [4]: 98.1%
percentage neutralization, CPE assay [5]: 33%
percentage neutralization, CPE assay [6]: 98.3%
percentage neutralization, CPE assay [7]: 82.9%
percentage neutralization, CPE assay [8]: 99.4%
percentage neutralization, CPE assay [9]: 99%
percentage neutralization, CPE assay [10]: 95.9%
percentage neutralization, RG assay [11]: 83.7%
percentage neutralization, RG assay [12]: 86.9%
percentage neutralization, RG assay [13]: 87.1%
percentage neutralization, RG assay [14]: 83.9%
percentage neutralization, RG assay [15]: 12.5%
percentage neutralization, RG assay [16]: 77.9%
percentage neutralization, RG assay [17]: 67.8%
percentage neutralization, RG assay [18]: 91.4%
percentage neutralization, RG assay [19]: 9%
percentage neutralization, RG assay [20]: 92.7%
percentage neutralization, RG assay [21]: 77.5%
neutralization of 600 pg leukocyte IFN, RG bioassay [22]: > 50%
binding result [23]: no binding (tested: <2-fold over matched controls; 25 ng MAb)
EC50 of neutralization, RG bioassay [24]: 146 ng/mL
EC50 of neutralization, RG bioassay [25]: 84.8 ng/mL
EC50 of neutralization, RG bioassay [26]: 13.5 ng/mL
EC50 of neutralization, RG bioassay [27]: 168 ng/mL
EC50 of neutralization, RG bioassay [28]: 235 ng/mL
EC50 of neutralization, RG bioassay [29]: 2.11 ng/mL
EC50 of neutralization, RG bioassay [30]: 0.56 ng/mL
EC50 of neutralization, RG bioassay [31]: 27.1 ng/mL
EC50 of neutralization, RG bioassay [32]: 153 ng/mL

Reference: patent publication US20090214565A1 (BAYLOR RESEARCH INSTITUTE, published 2009)
